Data from patent US20150031754, “APTAMER MODULATORS OF ESTROGEN RECEPTORS” (RESEARCH FOUNDATION OF STATE UNIVERSITY OF NEW YORK AT …, published 2015).
Residue numbers refer to the chain shown, from its start.

Legend:
[1] = molecular target: T1, SNAP-tag (control) (UniProt P16455); experiment: pulldown; conditions: SNAP-tag control background
T1 sequence: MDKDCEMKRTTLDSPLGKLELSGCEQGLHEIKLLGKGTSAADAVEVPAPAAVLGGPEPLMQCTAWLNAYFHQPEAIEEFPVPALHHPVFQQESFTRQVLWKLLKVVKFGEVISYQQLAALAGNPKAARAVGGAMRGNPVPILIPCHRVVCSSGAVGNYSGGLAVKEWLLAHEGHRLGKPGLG

[2] = molecular target: T2, Human estrogen receptor alpha (hERα), full-length, unliganded (Homo sapiens, UniProt P03372 P03372:1-595); experiment: EMSA; 200 nM ERα; two shifted bands; conditions: tags: none stated; baculovirus/insect cells; Invitrogen P2187 or EMD4 Biosciences 330655; label: labeled
T2 sequence (P03372 whole entry, one chain of several): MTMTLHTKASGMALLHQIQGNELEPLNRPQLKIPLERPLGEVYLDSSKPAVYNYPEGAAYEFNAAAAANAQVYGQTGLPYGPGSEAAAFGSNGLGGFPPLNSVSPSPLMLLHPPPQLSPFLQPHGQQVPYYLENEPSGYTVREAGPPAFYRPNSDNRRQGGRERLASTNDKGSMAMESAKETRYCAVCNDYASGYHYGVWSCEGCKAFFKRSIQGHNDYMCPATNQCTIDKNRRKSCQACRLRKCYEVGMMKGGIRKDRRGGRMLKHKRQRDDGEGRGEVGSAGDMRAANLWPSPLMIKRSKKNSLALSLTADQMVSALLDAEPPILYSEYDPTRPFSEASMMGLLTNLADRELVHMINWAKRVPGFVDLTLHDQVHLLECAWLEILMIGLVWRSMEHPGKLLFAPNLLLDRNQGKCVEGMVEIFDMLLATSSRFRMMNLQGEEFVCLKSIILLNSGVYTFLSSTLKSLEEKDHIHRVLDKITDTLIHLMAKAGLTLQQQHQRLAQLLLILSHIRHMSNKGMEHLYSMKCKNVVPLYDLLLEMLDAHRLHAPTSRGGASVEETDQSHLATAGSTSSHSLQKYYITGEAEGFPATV

[3] = molecular target: T2, Human estrogen receptor alpha (hERα), …; experiment: filter; same buffer, 37 C; Hill n>1; conditions: tags: none stated; baculovirus/insect cells; Invitrogen P2187 or EMD4 Biosciences 330655; label: 32P-CTP internal
Experimental: The dissociation constant (Kd) of the AptER-1, -2, -3, and -4 were measured using a nitrocellulose filter binding assay. A constant trace amount of [γ-³²P]-CTP incorporated RNA aptamer (˜0.1 nM) was titrated with increasing amounts of the target protein ranging from 5 to 150 nM. The binding activity at each concentration was determined as % binding, by calculating the radioactive signal of the RNA-protein complex retained on the filter as a percentage of the signal at the highest protein concentration (saturated) used. The assays were performed in triplicates for each aptamer. A binding curve was constructed using Sigma Plot 9.0.1, with average binding affinity (% binding) as a function of the protein concentration using a sigmoidal equation (Hill equation, 3 parameters). Apparent Kd was the protein concentration where half of the maximal binding activity was achieved, and were calculated from the data points by using Sigma Plot. […] The first 3 aptamers were isolated in in vitro selection I, and their affinity rank explains the relative abundance in the final selected library. More specifically, it is believed that AptER-1 dominated the final selected pool because it was the strongest binder. AptER-4 was the weakest binder, and would not have been easily identified in the selection I libraries.

[4] = molecular target: Human estrogen receptor beta (hERβ) (Homo sapiens, UniProt Q92731 Q92731:1-530); experiment: EMSA; affinity similar to hERα; conditions: tags: none stated; baculovirus/insect cells; EMD4 Biosciences 330657; label: 32P-CTP internal
Chain of Human estrogen receptor beta (hERβ) (Q92731 whole entry, one chain of several): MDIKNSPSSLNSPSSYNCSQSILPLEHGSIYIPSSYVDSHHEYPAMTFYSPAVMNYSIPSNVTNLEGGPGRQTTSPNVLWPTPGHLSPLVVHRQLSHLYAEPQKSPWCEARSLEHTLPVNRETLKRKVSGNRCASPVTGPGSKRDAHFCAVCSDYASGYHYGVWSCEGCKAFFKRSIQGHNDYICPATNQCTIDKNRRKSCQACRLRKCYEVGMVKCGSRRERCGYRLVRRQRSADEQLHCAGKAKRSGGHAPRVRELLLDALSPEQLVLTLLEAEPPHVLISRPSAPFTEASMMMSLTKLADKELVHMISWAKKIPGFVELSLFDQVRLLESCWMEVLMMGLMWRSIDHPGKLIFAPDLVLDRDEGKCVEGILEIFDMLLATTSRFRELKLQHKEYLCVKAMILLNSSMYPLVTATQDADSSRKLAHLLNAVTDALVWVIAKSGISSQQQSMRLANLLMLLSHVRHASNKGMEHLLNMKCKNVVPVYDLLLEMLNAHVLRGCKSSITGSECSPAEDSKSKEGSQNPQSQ
Experimental: FIGS. 9A-B illustrate the binding specificity of AptER-1, -2 and -3. […] Radiolabeled AptER-1, -2 and -3 (0.1 nM) were incubated with 20 nM hERα, 200 nM hERβ, or 200 μg/ml HeLa nuclear extract (NE). Binding reactions were resolved on a 4.8% polyacrylamide gel (acrylamide:bis-acrylamide=37.5:1) in ¼×TBE buffer. […] Radiolabeled AptER-1, -2 and -3 (0.1 nM) were incubated with 20 nM or 40 nM hERα, or hERβ. Binding reactions were resolved as described above.
To examine the binding specificity of the first set of isolated aptamers, AptER-1, -2 and -3, proteins were presented at high concentrations in ESMA, including hERβ at 200 nM or HeLa nuclear extract at 200 μg/ml, which should allow detection of weak binding activity. […] This was confirmed in a second EMSA using the two ER subtypes at the same concentrations (FIG. 9B). Furthermore, the binding affinities to the two forms were very close, as shown in the EMSA, and this was more carefully compared with the binding curves of AptER-1 (FIG. 8A). […] In the presence of HeLa nuclear extract (FIG. 9A), no specific shifted band could be observed.

[5] = molecular target: T2, Human estrogen receptor alpha (hERα), …; experiment: EMSA; 35 nM hERα; fully active; conditions: tags: none stated; baculovirus/insect cells; Invitrogen P2187 or EMD4 Biosciences 330655; label: 32P internal; stem-loop
[6] = molecular target: T2, Human estrogen receptor alpha (hERα), …; experiment: EMSA; 200 nM ERα; one complex; BSA and yeast RNA competitors; conditions: tags: none stated; baculovirus/insect cells; Invitrogen P2187 or EMD4 Biosciences 330655; label: labeled
[7] = molecular target: T2, Human estrogen receptor alpha (hERα), …; experiment: EMSA; no binding; method EMSA or filter; conditions: tags: none stated; baculovirus/insect cells; Invitrogen P2187 or EMD4 Biosciences 330655
[8] = molecular target: hERα DNA-binding domain (Homo sapiens, UniProt P03372 P03372:180-268); experiment: EMSA; 100-400 nM DBD, 5 nM DNA; conditions: tags: N-terminal His6; E. coli BL21(DE3); label: 5'-32P; hairpin with GAAA tetraloop, ERE in stem
Chain of hERα DNA-binding domain (P03372 180-268, one chain of several): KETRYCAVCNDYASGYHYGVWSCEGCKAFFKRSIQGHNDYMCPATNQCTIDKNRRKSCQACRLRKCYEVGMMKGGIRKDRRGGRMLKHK
Experimental: (§1) No binding activity to RNase inhibitor (control) or DBD & RNase inhibitor was detected. The binding reactions were resolved on the same type of gel as above. […] End-radiolabeled ERE-50mer at 5 nM was mixed with 100× or 400× more concentrated unlabeled competitors ERE-50mer, AptER-1, -2 and -3 RNA or an early generation pool in hERα selection G1 before addition of hERα (40 nM). Only cold ERE-50mer disrupted radioactive ERE-hERα complex.
Class I aptamers bound with similar affinities to both subtypes of ER, which share the highest homology (96%) in the DBD. This raised the possibility that the target site of Class I aptamers was located within the DBD. Whether the aptamers bind to the DBD was tested in binding assays using a recombinant hERα-DBD. It was expressed as a His₆-tagged fusion protein in E. coli BL21 (DE3) and purified as described in the Materials and Methods. To verify its ERE-binding capability, a DNA EMSA was performed. DNA oligo ERE-50mer contains a GAAA tetra loop, which forces the oligo to form a hairpin. A copy of Xenopus laevis vitellogenin A2 ERE (5′-[…]-3′, SEQ ID NO: 73) was presented in the stem of a hairpin. […] However, in both EMSA (FIG. 11B) and filter-binding assay, no association was detected between AptER-1 and DBD. […]

[9] = molecular target: T2, Human estrogen receptor alpha (hERα), …; experiment: EMSA; not competed by AptER-1, -2, -3 or -4; competed by cold ERE; conditions: tags: none stated; baculovirus/insect cells; Invitrogen P2187 or EMD4 Biosciences 330655; label: 5'-32P; hairpin with GAAA tetraloop, ERE in stem
Experimental: as §1
Whether the aptamers bind to the DNA binding site on the full-length hERα was tested in cross-competition assays using ERE-50mer as a specific competitor. Radiolabeled ERE-50mer was competed with 100× or 400× more concentrated nonradioactive competitors ERE-50mer, AptER-1, -2, -3 or Generation 1 pool of hERα selection G1 (see Example 1). Radiolabeled ERE-50mer at 5 nM was mixed with the competitors before the addition of hERα at 50 nM. The binding reaction was set up as described in the Materials and Methods, and electrophorised in a 4.8% polyacrylamide gel (acrylamide:bis-acrylamide=50:1) in ½ ΔTGB. ERE-50mer served as a positive control of competition, whereas the G1 pool was a negative control. […] This agreed with the result from a second cross-competition assay between radiolabeled AptER-1 and unlabeled ERE-50mer for binding to human ERα (FIG. 9A).

[10] = molecular target: T2, Human estrogen receptor alpha (hERα), …; experiment: EMSA; about half shifted below 15 nM; more than two-fold stronger than monomer; conditions: tags: none stated; baculovirus/insect cells; Invitrogen P2187 or EMD4 Biosciences 330655; label: 32P-CTP internal; two AptER-1(53nt) units on three-way junction of H. marismortui 5S RNA
[11] = molecular target: T2, Human estrogen receptor alpha (hERα), …; experiment: EMSA; 25 nM hERα; no difference from sB63; conditions: tags: none stated; baculovirus/insect cells; Invitrogen P2187 or EMD4 Biosciences 330655; label: 32P internal
[12] = molecular target: T2, Human estrogen receptor alpha (hERα), …; experiment: EMSA; 10 mM MgCl2, 37 C binding; conditions: tags: none stated; baculovirus/insect cells; Invitrogen P2187 or EMD4 Biosciences 330655; label: 32P internal; stem-loop

Work on “GCGUGACGGGCACCGCGAACAAAACGCAAGACAGAGUGCCGACAAGAGCACUACAAGCCCGUCCAUACUCCGGCACCGCGAACAAAACGCAAGACAGAGUGCCGACAAGAGCACUAACAGCCGGAGGCGCUU [AptER-1x2 (expressed dimer)]” yielded a binding signal (fold (control reference)) [1] of 1.

B1: ERL5-6 (ssRNA)
RNA: GGGAGAAUUCAACUGCCAUCUAAAUGAAAGGACGCACACUACGUGUCCUACAAACACAGAAACAAAAACCGAACUACAAGCUUCUGGACUCGGU
B1: binds [2].

B2: AptER-3 (ssRNA)
RNA: GGGAGAAUUCAACUGCCAUCUAGGCGACCCAGGGCCGGGACGCAAAGCAGCCAAAACAGACGGCCCCAGUCAGGGAGUUACUACAAGCUUCUGGACUCGGU
With B2 the Kd [3] was 30 nM and the binding result [4] was “binds”.

B3: AptER-1(53nt) (ssRNA)
RNA: GGGCACCGCGAACAAAACGCAAGACAGAGUGCCGACAAGAGCACUACAAGCCC
B3: binds [5].

B4: ERL5-5 (ssRNA)
RNA: GGGAGAAUUCAACUGCCAUCUACAGAAGGACCGCGAGGGUAAAAACCACGCACGACAGAGUAUAACAAAACAACUACAAGCUUCUGGACUCGGU
B4: binds [2].

B5: ERL5-4 (ssRNA)
RNA: GGGAGAAUUCAACUGCCAUCUAACAGCCAAGUAAGCGACAACGACAAUCAAUGACGCGAACAAUCCGAAAGAACUACAAGCUUCUGGACUCGGU
B5: binds [2].

B6: ERL5-1 (ssRNA)
RNA: GGGAGAAUUCAACUGCCAUCUACAAGCCAAGCAAGCGAGCAAAAAACGCGAGCAUCCGAGCUCCAAGACGUACUACAAGCUUCUGGACUCGGU
B6: binds [6].

GGGCACCGCGAACAAAACGCAAGACAGAGUGCCC (ssRNA) [AptER-1 34nt version]: no binding [7].

AGTCAGGTCACAGTGACCTGATCGAAAGATCAGGTCACTGTGACCTGACT (structured_DNA) [ERE-50mer]: binds [8]; binds [9].

B7: AptER-2 (ssRNA)
RNA: GGGAGAAUUCAACUGCCAUCUAGGCACACGCGAGAUAGAGCGAGGCCUCCAAAAAUGGCCACGCCAGGAAGCAAGUACUACAAGCUUCUGGACUCGGU
B7 was tested, and the Kd [3] was 21 nM and the binding result [4] was “binds”.

B8: AptER-1x2(138nt) dimer (ssRNA)
RNA: GGAUCCGUGACGGGCACCGCGAACAAAACGCAAGACAGAGUGCCGACAAGAGCACUACAAGCCCGUCCAUACUCCGGCACCGCGAACAAAACGCAAGACAGAGUGCCGACAAGAGCACUAACAGCCGGAGGCGGAUCC
With B8 the Kd [10] was less than 15 nM.

B9: sB65 (65nt truncated clone B65) (ssRNA)
RNA: GGGCAGAAGCACCGCGAACAAAACGCAAGACAGAGUGCCGACAAGAGCACUACAAGCUUCUGCCC
B9: binds [11].

B10: AptER-1(65nt) (sB63) (ssRNA)
RNA: B9 RNA with A8G
For B10, the Kd [12] was roughly 30 nM.
